Patent US7354735B2, “Nucleic acid encoding fluorescent protein constructs and methods for detecting apoptosis” (Hong Kong University of Science and Technology, priority 2001, dated 2008)

How the values were obtained:
caspase-3 [1] = target: T1, caspase-3 (Homo sapiens, UniProt P42574); experiment: Western blot analysis of caspase-3 cleavage of purified FRET probes; type: biochemical; conditions: for cleavage by caspase-3 (Western blot): purified protein incubated with caspase-3, 37 degree C, 1-2 hrs, anti-GFP antibody
T1 sequence (P42574 29-175 limits assumed): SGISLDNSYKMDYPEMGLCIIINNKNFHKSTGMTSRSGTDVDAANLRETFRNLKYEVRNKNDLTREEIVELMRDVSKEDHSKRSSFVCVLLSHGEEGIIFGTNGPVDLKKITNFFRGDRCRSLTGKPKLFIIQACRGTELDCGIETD
T1 sequence (P42574 176-277 limits assumed): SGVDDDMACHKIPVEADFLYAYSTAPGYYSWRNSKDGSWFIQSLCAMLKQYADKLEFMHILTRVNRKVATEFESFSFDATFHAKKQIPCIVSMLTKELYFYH
Method: Purified FRET probes were incubated with caspase-3 in the reaction buffer at 37. degree. C. for 1-2 hrs. The reaction mixtures were separated on a SDS-PAGE and transferred onto a nitrocellulose membrane. The Protein blot was then probed with anti-GFP antibody (CLONTECH™). Acetyl-Asp-Glu-Val-Asp-aldehyde called CHO (AC-DEVD-CHO) is a chemical derivative of SEQ ID NO: 11 and a caspase-3 specific inhibitor.
To determine whether these FRET probes are sensitive to caspase-3 cleavage; the purified proteins were incubated with caspase-3 and then subjected to Western blot analysis. Antibodies were purchased from CLONTECH™.

HeLa cells = experiment: Imaging of FRET probe in living HeLa cells during UV-induced apoptosis; type: cell-based
Method: HeLa cells expressing either sensor A or CFP-YFP fusion protein were induced to apoptosis by UV irradiation for 5 min. When the probe was excited at 440 nm, the fluorescent intensity of CFP (at 480±15 nm) and that of YFP (at 535±12.5 nm) from same cell before (A, C) and after (B, D) UV treatment was recorded using a cooled CCD imaging system. The representative ratio images of YFP/CFP are shown here. A significant FRET reduction is seen only in panel B from both cells expressing sensor A, but not in panel D with cells expressing the control fusion protein.
FIG. 7 is a statistic analysis of FRET changes during apoptosis. Images were recorded as described in FIG. 6. The fluorescent intensities of YFP and CFP were then determined from each image. The average values of YFP/CFP from 13 cells expressing sensor A and 9 cells expressing CFP-YFP fusion protein before and after UV-irradiation are plotted here. Nearly 4-fold reduction in the apoptotic cells expressing was found using the FRET probe but not in the control cells expressing the CFP-YFP fusion gene.
To test whether this FRET probe can be used to detect caspase activity in living cells, sensor A was expressed in HeLa cells and measured the FRET effect of the probe in single cells using a cooled CCD imaging system. The fluorescent images of the cell obtained from the emission wavelengths of CFP and YFP were recorded before and after UV treatment. A computer software (Metamorph, Universal Imaging) was used to generate a ratio image of YFP/CFP for each cell under different treatments. […] At 3 hours after the UV treatment, these cells had entered apoptosis. […] The average YFP/CFP emission ratio changes was calculated for 13 apoptotic cells expressing sensor A, and found a nearly 4-fold reduction after UV treatment (FIG. 7).
Recently, sensor A was used to study the dynamics of caspase-3 activation during UV-induced apoptosis in living HeLa cells.

caspase-3 [2] = target: T1, caspase-3; experiment: Spectrofluorometer measurement of FRET emission spectra before and after caspase-3 treatment; type: biochemical; conditions: excitation 433 nm; for YFP (526 nm)/CFP (480 nm) emission ratio after caspase treatment: after incubating with caspase-3; for YFP (526 nm)/CFP (480 nm) emission ratio before caspase treatment: before caspase-3
Method: The excitation wavelength used to excite CFP in the probe was 433 nm. −cpp32: no caspase-3 in the reaction. +cpp32: caspase-3 was added into the reaction.
The fluorescent energy transfer from CYP to YFP in the FRET probes was measured using a spectrofluorometer. When CFP was excited in each probe at the excitation wavelength of 433 nm, very little emission light was detected from the FRET probes at the known emission wavelength for CFP (480 nm). Instead, a significant amount of emitted fluorescent light was detected at the emission wavelength of YFP which peaks at 526 nm (FIG. 4). […] It was then determined whether the FRET effect was sensitive to the caspase cleavage. The FRET probes were treated with caspase-3 and analyzed using a spectrofluorometer. […] As a control, no change for the emission spectrum was observed from the CFP-YFP fusion protein which lacks the substrate sequence (FIG. 4A). Based on spectra similar to FIG. 4, it was determined the YFP (526 nm)/CFP (480 nm) emission ratio for all three FRET probes before and after caspase treatment. This YFP/CFP ratio was used to quantify the FRET effect.

caspase-3 [3] = target: T1, caspase-3; experiment: Dosage-dependent caspase-3 cleavage assay; type: biochemical; conditions: 1.28 μg sensor protein, caspase-3 0.3125 ng to 1.28 μg, 1 hour; for sensitivity to caspase-3: normalized YFP/CFP ratio
Method: Same amount of purified sensor A and sensor B protein was incubated with different amount of caspase-3 ranging from 0.3125 ng to 1.28 μg for 1 hr. The emission spectra of both YFP and CFP were measured for each sample at the end of reaction using a spectrofluorometer. The emission ratio (YFP/CFP) of each sample was normalized to the value of the ratio from a mock control with no caspase-3.
To compare the sensitivity of sensor A and sensor B on caspase-3 activity, a dosage-dependent caspase-3 cleavage assay was performed. In this experiment, 1.28 μg amount of the purified sensor A or sensor B protein was incubated with different amount of caspase-3 ranging from 0.3125 ng to 1.28 μg for 1 hour. The emission spectra of both YFP and CFP were measured for each sample at the end of the reaction using a spectrofluorometer. The emission ratio (YFP/CFP) of each caspase reaction was normalized with that of the mock control having no caspase-3 in the reaction.

Row | cleavage of FRET probe (sensor A) by caspase-3 in the presence of inhibitor (caspase-3 [1]; caspase-3 plus inhibitor, Western blot) | change of emission spectrum on caspase-3 treatment (caspase-3 [2]) | YFP (526 nm)/CFP (480 nm) emission ratio after caspase treatment (caspase-3 [2]) | YFP (526 nm)/CFP (480 nm) emission ratio before caspase treatment (caspase-3 [2]) | relative sensitivity to caspase-3 (sensor A versus sensor B) (caspase-3 [3]) | sensitivity to caspase-3 (caspase-3 [3]) | cleavage by caspase-3 (Western blot) (caspase-3 [1]) | Substance | reduction of average YFP/CFP emission ratio after UV treatment (HeLa cells; HeLa cells expressing the probe, before and after UV irradiation, 13 cells sensor A, 9 control cells) [fold] | intensity of YFP/CFP ratio image after UV treatment (HeLa cells; HeLa cells, 3 hours after UV treatment) | detection of caspase-3 activation during UV-induced apoptosis (HeLa cells; living HeLa cells)
1 | no FRET probe (sensor A) was cleaved |  |  |  |  |  |  | acetyl-Asp-Glu-Val-Asp-aldehyde [AC-DEVD-CHO, reference compound] |  |  | 
2 |  | completely changed | 0.59 | 3.02 | slightly more sensitive than sensor B | highly sensitive | caspase-3 can cleave almost all | sensor A: CFP-YFP FRET fusion protein with 16 amino acid linker SGLRSGGDEVDGGSNS (SEQ ID NO: 7) containing the caspase-3 recognition motif (left off: small tags and cut ends; large carriers) | ~4 | decease dramatically | clearly detected prior to any visible cell morphological changes
3 |  | completely changed | 0.59 | 2.76 |  | highly sensitive | caspase-3 can cleave almost all | sensor B: CFP-YFP FRET fusion protein with 22 amino acid linker SGLRSGGSGGDEVDGGSGGSNS (SEQ ID NO: 10) containing DEVD (left off: small tags and cut ends; large carriers) |  |  | 
